The results in this text go back to article doi:10.1101/2022.01.16.476467 (bioRxiv, 2022).

Assay [1] has as its target T1, CASK full-length protein (recombinant) (Mus musculus, UniProt O70589-3 1-897).
T1 sequence (looked up): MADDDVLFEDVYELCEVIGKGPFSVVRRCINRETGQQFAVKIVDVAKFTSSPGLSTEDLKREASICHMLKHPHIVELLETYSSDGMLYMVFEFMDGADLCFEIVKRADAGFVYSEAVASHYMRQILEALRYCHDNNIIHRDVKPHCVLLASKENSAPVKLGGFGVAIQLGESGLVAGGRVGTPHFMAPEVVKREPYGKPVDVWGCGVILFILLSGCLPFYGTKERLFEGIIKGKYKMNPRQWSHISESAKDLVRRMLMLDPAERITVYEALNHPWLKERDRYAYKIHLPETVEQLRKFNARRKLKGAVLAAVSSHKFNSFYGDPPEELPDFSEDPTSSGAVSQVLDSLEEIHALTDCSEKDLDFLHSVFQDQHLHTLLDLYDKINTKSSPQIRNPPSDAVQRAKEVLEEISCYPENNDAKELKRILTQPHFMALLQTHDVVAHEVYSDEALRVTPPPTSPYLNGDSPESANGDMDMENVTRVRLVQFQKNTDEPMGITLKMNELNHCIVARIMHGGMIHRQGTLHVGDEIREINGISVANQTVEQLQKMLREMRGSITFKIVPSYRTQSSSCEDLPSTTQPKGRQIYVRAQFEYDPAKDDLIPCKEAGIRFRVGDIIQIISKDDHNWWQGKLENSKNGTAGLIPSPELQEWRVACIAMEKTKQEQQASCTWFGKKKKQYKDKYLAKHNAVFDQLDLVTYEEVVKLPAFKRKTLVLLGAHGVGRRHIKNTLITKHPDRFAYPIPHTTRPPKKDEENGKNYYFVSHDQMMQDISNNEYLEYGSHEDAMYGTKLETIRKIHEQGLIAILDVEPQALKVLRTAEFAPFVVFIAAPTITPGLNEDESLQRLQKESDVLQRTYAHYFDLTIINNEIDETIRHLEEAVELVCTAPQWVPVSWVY
The assay can be described thus: ITC.

The target of assay [2] is T2, CASK_CAMK domain (residues 1-345) (Mus musculus, UniProt O70589-3 1-345).
T2 sequence (looked up): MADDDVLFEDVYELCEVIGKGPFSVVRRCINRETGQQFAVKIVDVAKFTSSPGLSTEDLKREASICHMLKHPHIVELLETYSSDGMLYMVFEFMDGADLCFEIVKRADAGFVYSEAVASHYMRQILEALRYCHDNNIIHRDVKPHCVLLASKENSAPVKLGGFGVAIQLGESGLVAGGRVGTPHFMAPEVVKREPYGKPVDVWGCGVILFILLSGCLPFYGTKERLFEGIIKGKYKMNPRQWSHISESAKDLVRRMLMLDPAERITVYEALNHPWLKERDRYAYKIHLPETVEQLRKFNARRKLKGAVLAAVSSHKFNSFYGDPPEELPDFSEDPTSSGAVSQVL
Kind of assay: ITC.

In assay [3] the target is T2, CASK_CAMK domain (residues 1-345). Kind of assay: SEC-MALS.

B1: Caskin1_N-terminal (residues 1-674) (domain or fragment)
chain: not shown
For B1, the Kd in assay [1] was ~760 nM.

B2: Caskin1 extended CID protein (residues 371-466) (domain or fragment, Mus musculus, UniProt Q6P9K8-1 371-466, looked up)
chain: PPEEIWVLRKPFAGGDRSGSLSNVAGGRSTGGHALHAGSEGVKLLATVLSQKSVSESSPGDSPVKPPEGSSGAARSQPPAAHAGQVYGEQPPKKLE
Regarding B2, the Kd in assay [2] amounted to 940 ± 90 nM. In addition, in assay [3], the “stoichiometry N” value is ~1.
